Measured values reported in article doi:10.1101/2023.09.15.557970 (bioRxiv, 2023).

B1: Notch1 RAMANK (domain or fragment, human, UniProt P46531 1758-2127, looked up)
chain: RKRRRQHGQLWFPEGFKVSEASKKKRREPLGEDSVGLKPLKNASDGALMDDNQNEWGDEDLETKKFRFEEPVVLPDLDDQTDHRQWTQQHLDAADLRMSAMAPTPPQGEVDADCMDVNVRGPDGFTPLMIASCSGGGLETGNSEEEEDAPAVISDFIYQGASLHNQTDRTGETALHLAARYSRSDAAKRLLEASADANIQDNMGRTPLHAAVSADAQGVFQILIRNRATDLDARMHDGTTPLILAARLAVEGMLEDLINSHADVNAVDDLGKSALHWAAAVNNVDAAVVLLKNGANKDMQNNREETPLFLAAREGSYETAKVLLDHFANRDITDHMDRLPRDIAQERMHHDIVRLLDEYNLVRSPQLHGA
B2: Notch2 RAMANK (domain or fragment, human, UniProt Q04721 1699-2076, looked up)
chain: MAKRKRKHGSLWLPEGFTLRRDASNHKRREPVGQDAVGLKNLSVQVSEANLIGTGTSEHWVDDEGPQPKKVKAEDEALLSEEDDPIDRRPWTQQHLEAADIRRTPSLALTPPQAEQEVDVLDVNVRGPDGCTPLMLASLRGGSSDLSDEDEDAEDSSANIITDLVYQGASLQAQTDRTGEMALHLAARYSRADAAKRLLDAGADANAQDNMGRCPLHAAVAADAQGVFQILIRNRVTDLDARMNDGTTPLILAARLAVEGMVAELINCQADVNAVDDHGKSALHWAAAVNNVEATLLLLKNGANRDMQDNKEETPLFLAAREGSYEAAKILLDHFANRDITDHMDRLPRDVARDRMHHDIVRLLDEYNVTPSPPGTVL
B3: Notch3 RAMANK (domain or fragment, human, UniProt Q9UM47 1663-2038, looked up)
chain: MVARRKREHSTLWFPEGFSLHKDVASGHKGRREPVGQDALGMKNMAKGESLMGEVATDWMDTECPEAKRLKVEEPGMGAEEAVDCRQWTQHHLVAADIRVAPAMALTPPQGDADADGMDVNVRGPDGFTPLMLASFCGGALEPMPTEEDEADDTSASIISDLICQGAQLGARTDRTGETALHLAARYARADAAKRLLDAGADTNAQDHSGRTPLHTAVTADAQGVFQILIRNRSTDLDARMADGSTALILAARLAVEGMVEELIASHADVNAVDELGKSALHWAAAVNNVEATLALLKNGANKDMQDSKEETPLFLAAREGSYEAAKLLLDHFANREITDHLDRLPRDVAQERLHQDIVRLLDQPSGPRSPPGPHG
B4: Notch4 RAMANK (domain or fragment, human, UniProt Q99466 1472-1833, looked up)
chain: RRRRREHGALWLPPGFTRRPRTQSAPHRRRPPLGEDSIGLKALKPKAEVDEDGVVMCSGPEEGEEVGQAEETGPPSTCQLWSLSGGCGALPQAAMLTPPQESEMEAPDLDTRGPDGVTPLMSAVCCGEVQSGTFQGAWLGCPEPWEPLLDGGACPQAHTVGTGETPLHLAARFSRPTAARRLLEAGANPNQPDRAGRTPLHAAVAADAREVCQLLLRSRQTAVDARTEDGTTPLMLAARLAVEDLVEELIAAQADVGARDKWGKTALHWAAAVNNARAARSLLQAGADKDAQDNREQTPLFLAAREGAVEVAQLLLGLGAARELRDQAGLAPADVAHQRNHWDLLTLLEGAGPPEARHKATP

The binders below were run against Human CSL spanning residues 25-449 (human, UniProt Q06330 25-449) (assay: ITC).
Human CSL spanning residues 25-449, sequence (Q06330 25-449): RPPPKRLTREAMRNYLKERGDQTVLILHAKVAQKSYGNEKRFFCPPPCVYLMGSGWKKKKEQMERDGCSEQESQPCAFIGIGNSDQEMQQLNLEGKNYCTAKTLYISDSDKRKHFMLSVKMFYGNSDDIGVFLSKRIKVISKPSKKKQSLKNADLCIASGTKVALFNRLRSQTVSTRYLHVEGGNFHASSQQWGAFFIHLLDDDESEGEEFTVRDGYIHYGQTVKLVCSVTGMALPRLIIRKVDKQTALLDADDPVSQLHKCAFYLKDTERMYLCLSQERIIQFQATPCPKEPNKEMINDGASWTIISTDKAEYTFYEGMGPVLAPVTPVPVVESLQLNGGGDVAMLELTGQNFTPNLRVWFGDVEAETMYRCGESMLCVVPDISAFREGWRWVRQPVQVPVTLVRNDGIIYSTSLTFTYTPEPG
B1 showed a Kd of at most 100 nM.
B2 gave a Kd of at most 100 nM.
B3 was tested, and the Kd was at most 100 nM.
In the case of B4, the Kd is reported as at most 100 nM.
